# Assay results: article PMC2192624 (The Journal of Experimental Medicine, 1996)
# T1: Gal4 DNA-binding domain (DNABD) linked to the full-length CIITA (pSGCIITA) (UniProt P33076 1-1130)
# T1 sequence: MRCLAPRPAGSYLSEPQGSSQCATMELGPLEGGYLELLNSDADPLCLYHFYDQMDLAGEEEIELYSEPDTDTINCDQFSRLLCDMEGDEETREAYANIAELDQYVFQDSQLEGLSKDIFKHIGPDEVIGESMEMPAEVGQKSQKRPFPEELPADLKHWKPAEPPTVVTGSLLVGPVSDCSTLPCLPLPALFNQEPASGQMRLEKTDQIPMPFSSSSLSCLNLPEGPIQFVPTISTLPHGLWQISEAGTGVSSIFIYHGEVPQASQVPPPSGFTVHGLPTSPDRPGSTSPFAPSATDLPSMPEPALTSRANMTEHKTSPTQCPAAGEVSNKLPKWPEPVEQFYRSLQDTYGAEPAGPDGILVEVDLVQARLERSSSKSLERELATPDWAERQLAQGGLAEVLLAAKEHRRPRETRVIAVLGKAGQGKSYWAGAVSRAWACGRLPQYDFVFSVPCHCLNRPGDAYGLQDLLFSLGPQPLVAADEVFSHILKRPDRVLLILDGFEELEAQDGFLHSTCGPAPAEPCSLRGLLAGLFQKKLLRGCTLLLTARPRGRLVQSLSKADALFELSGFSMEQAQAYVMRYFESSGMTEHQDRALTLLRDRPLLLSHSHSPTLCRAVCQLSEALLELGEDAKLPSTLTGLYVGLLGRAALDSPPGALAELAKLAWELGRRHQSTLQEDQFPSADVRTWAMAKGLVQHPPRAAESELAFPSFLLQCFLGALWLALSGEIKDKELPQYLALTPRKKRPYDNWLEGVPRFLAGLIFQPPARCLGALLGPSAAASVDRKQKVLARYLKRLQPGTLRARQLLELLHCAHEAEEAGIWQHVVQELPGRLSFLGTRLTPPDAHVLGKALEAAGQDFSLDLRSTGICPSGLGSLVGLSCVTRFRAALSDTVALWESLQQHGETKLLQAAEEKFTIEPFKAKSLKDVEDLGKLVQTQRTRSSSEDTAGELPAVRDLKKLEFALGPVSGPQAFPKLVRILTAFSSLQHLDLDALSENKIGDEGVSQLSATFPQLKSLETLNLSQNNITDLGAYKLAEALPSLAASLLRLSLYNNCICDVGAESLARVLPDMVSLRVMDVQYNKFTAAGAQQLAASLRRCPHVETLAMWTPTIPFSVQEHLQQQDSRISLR
# B1: Bob1 expressed from pCBOB1 (natural protein)
# chain: MLWQKPTAPEQAPAPARPYQGVRVKEPVKELLRRKRGHASSGAAPAPTAVVLPHQPLATYTTVGPSCLDMEGSVSAVTEEAALCAGWLSQPTPATLQPLAPWTPYTEYVPHEAVSCPYSADMYVQPVCPSYTVVGPSSVLTYASPPLITNVTTRSSATPAVGPPLEGPEHQAPLTYFPWPQPLSTLPTSTLQYQPPAPALPGPQFVQLPISIPEPVLQDMEDPRRAASSLTIDKLLLEEEDSDAYALNHTLSVEGF
# Target: T1, Gal4 DNA-binding domain (DNABD) linked …
# Test: two-hybrid
binder,measurement,value
B1,"fold transactivation of pDRAUASgCAT (CAT reporter, with OBS)",95 fold
same,"fold transactivation of pG1E1bCAT (CAT reporter, no OBS)",90 fold
